Source: paper PMC12759081, “S-phase PARylation of microprotein RSMC enhances the function of Sororin in sister chromatid cohesion” (The EMBO Journal, 2025)

Tests used:
Conditions in all cases: both partners purified
[1] = target: T1, 6×His-3×Flag-PDS5B, Cy5-labelled (UniProt Q9NTI5 1-1447, Cy5 label); assay: MST; competitive: 34 nM Cy5-PDS5B and Wapl dilutions combined 10 min at RT, then 17 nM Sororin added; 25 °C, 50 mM Tris pH 7.4, 150 mM NaCl, 10% glycerol, 0.05% Tween-20
T1 construct: PDS5B, cDNA in pFastBac1; primers run from the start codon to the stop codon; also called His-Flag-PDS5B; Cy5-labeled PDS5B; source: SF9 cells (baculovirus), purified (Ni2+ Sepharose); not shown: His6, N-terminal, kept; 3×Flag, N-terminal, kept
T1 sequence (looked up): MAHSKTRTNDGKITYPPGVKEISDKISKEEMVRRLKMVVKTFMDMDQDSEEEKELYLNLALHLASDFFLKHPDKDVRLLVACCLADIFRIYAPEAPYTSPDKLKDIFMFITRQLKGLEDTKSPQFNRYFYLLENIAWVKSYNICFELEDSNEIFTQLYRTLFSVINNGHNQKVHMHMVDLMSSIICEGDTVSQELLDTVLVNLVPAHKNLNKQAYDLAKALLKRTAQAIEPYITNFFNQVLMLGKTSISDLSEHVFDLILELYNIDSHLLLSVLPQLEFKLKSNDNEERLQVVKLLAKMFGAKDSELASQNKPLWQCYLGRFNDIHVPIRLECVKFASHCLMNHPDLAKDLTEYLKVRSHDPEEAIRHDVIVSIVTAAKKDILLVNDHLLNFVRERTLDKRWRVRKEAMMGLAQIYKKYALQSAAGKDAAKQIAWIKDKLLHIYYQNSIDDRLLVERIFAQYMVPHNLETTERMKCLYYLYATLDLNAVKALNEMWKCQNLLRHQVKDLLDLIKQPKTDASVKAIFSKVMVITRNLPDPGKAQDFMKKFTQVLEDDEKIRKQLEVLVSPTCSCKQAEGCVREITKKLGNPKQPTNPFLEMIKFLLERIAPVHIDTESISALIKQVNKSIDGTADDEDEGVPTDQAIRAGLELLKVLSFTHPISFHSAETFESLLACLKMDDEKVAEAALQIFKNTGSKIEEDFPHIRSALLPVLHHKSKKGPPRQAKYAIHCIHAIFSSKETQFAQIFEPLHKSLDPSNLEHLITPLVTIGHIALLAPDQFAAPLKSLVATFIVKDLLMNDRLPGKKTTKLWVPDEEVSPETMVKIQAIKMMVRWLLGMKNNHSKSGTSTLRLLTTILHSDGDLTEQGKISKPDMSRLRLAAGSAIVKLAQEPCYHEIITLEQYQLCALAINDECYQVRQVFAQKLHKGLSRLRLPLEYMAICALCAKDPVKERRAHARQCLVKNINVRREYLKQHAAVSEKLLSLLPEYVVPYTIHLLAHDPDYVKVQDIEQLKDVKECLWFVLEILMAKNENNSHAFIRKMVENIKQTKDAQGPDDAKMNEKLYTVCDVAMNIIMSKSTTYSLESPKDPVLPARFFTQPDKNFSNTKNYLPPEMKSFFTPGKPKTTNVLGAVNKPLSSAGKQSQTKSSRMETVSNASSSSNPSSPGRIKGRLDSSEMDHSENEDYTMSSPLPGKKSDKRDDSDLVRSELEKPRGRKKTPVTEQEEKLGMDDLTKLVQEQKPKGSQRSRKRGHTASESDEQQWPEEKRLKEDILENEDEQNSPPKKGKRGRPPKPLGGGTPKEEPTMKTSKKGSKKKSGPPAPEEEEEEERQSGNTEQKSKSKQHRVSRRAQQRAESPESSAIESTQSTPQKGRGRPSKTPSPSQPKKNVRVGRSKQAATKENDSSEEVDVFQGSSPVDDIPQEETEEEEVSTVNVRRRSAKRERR

[2] = target: T1, 6×His-3×Flag-PDS5B, Cy5-labelled; assay: MST; competitive: 34 nM Cy5-PDS5B and Wapl dilutions combined 10 min at RT, then Sororin and RSMC added (17 nM each, 1:1 molar ratio); 25 °C, 50 mM Tris pH 7.4, 150 mM NaCl, 10% glycerol, 0.05% Tween-20
[3] = target: T1, 6×His-3×Flag-PDS5B, Cy5-labelled; assay: MST; Cy5-labelled PDS5B at 34 nM, partner in twofold dilutions; 25 °C, 50 mM Tris pH 7.4, 150 mM NaCl, 10% glycerol, 0.05% Tween-20; Monolith NT.115

B1: Wapl (natural protein, UniProt Q7Z5K2 1-1190, looked up)
chain: MTSRFGKTYSRKGGNGSSKFDEVFSNKRTTLSTKWGETTFMAKLGQKRPNFKPDIQEIPKKPKVEEESTGDPFGFDSDDESLPVSSKNLAQVKCSSYSESSEAAQLEEVTSVLEANSKISHVVVEDTVVSDKCFPLEDTLLGKEKSTNRIVEDDASISSCNKLITSDKVENFHEEHEKNSHHIHKNADDSTKKPNAETTVASEIKETNDTWNSQFGKRPESPSEISPIKGSVRTGLFEWDNDFEDIRSEDCILSLDSDPLLEMKDDDFKNRLENLNEAIEEDIVQSVLRPTNCRTYCRANKTKSSQGASNFDKLMDGTSQALAKANSESSKDGLNQAKKGGVSCGTSFRGTVGRTRDYTVLHPSCLSVCNVTIQDTMERSMDEFTASTPADLGEAGRLRKKADIATSKTTTRFRPSNTKSKKDVKLEFFGFEDHETGGDEGGSGSSNYKIKYFGFDDLSESEDDEDDDCQVERKTSKKRTKTAPSPSLQPPPESNDNSQDSQSGTNNAENLDFTEDLPGVPESVKKPINKQGDKSKENTRKIFSGPKRSPTKAVYNARHWNHPDSEELPGPPVVKPQSVTVRLSSKEPNQKDDGVFKAPAPPSKVIKTVTIPTQPYQDIVTALKCRREDKELYTVVQHVKHFNDVVEFGENQEFTDDIEYLLSGLKSTQPLNTRCLSVISLATKCAMPSFRMHLRAHGMVAMVFKTLDDSQHHQNLSLCTAALMYILSRDRLNMDLDRASLDLMIRLLELEQDASSAKLLNEKDMNKIKEKIRRLCETVHNKHLDLENITTGHLAMETLLSLTSKRAGDWFKEELRLLGGLDHIVDKVKECVDHLSRDEDEEKLVASLWGAERCLRVLESVTVHNPENQSYLIAYKDSQLIVSSAKALQHCEELIQQYNRAEDSICLADSKPLPHQNVTNHVGKAVEDCMRAIIGVLLNLTNDNEWGSTKTGEQDGLIGTALNCVLQVPKYLPQEQRFDIRVLGLGLLINLVEYSARNRHCLVNMETSCSFDSSICSGEGDDSLRIGGQVHAVQALVQLFLERERAAQLAESKTDELIKDAPTTQHDKSGEWQETSGEIQWVSTEKTDGTEEKHKKEEEDEELDLNKALQHAGKHMEDCIVASYTALLLGCLCQESPINVTTVREYLPEGDFSIMTEMLKKFLSFMNLTCAVGTTGQKSISRVIEYLEHC
notes: Wapl, cohesin-releasing factor; primers run from the start codon to the stop codon
With B1 the “Kd of Wapl-PDS5B with Sororin added” value [1] was 25.3 µM, the “Kd of Wapl-PDS5B with Sororin and RSMC added (1:1)” value [2] was 50.1 µM and the Kd [3] was about 4.7 µM.
